Test results: article PMC10697951

Experiments:
Experiment in all cases: MST
[1] = tested on: SUV420H1(1-390) Y349A (human); details: 40 uM SAM; text says NCP H2A, legend H4K20M; histone H4 K20M; MST: 20 mM HEPES pH 7.5, 50 mM NaCl (listed twice), 50 mM KCl, 1 mg/mL BSA, 0.05% Tween-20, 40 uM SAM, 2 mM DTT, room temperature; EMSA: 25 mM HEPES pH 7.5 …
[2] = tested on: SUV420H1(1-390) R257A (human); details: histone H4 K20M; MST: 20 mM HEPES pH 7.5, 50 mM NaCl (listed twice), 50 mM KCl, 1 mg/mL BSA, 0.05% Tween-20, 40 uM SAM, 2 mM DTT, room temperature; EMSA: 25 mM HEPES pH 7.5 …
[3] = tested on: SUV420H1(1-390) R286A (human); details: histone H4 K20M; MST: 20 mM HEPES pH 7.5, 50 mM NaCl (listed twice), 50 mM KCl, 1 mg/mL BSA, 0.05% Tween-20, 40 uM SAM, 2 mM DTT, room temperature; EMSA: 25 mM HEPES pH 7.5 …
[4] = tested on: SUV420H1(1-390) R357A (human); details: 40 uM SAM; text says NCP H2A, legend H4K20M; histone H4 K20M; MST: 20 mM HEPES pH 7.5, 50 mM NaCl (listed twice), 50 mM KCl, 1 mg/mL BSA, 0.05% Tween-20, 40 uM SAM, 2 mM DTT, room temperature; EMSA: 25 mM HEPES pH 7.5 …
[5] = tested on: SUV420H1(1-390) S283L (human); details: histone H4 K20M; MST: 20 mM HEPES pH 7.5, 50 mM NaCl (listed twice), 50 mM KCl, 1 mg/mL BSA, 0.05% Tween-20, 40 uM SAM, 2 mM DTT, room temperature; EMSA: 25 mM HEPES pH 7.5 …
[6] = tested on: SUV420H1(1-390) R220A (human); details: 40 uM SAM; text says NCP H2A, legend H4K20M; histone H4 K20M; MST: 20 mM HEPES pH 7.5, 50 mM NaCl (listed twice), 50 mM KCl, 1 mg/mL BSA, 0.05% Tween-20, 40 uM SAM, 2 mM DTT, room temperature; EMSA: 25 mM HEPES pH 7.5 …
[7] = tested on: SUV420H1(1-390) R357H (human); details: 40 uM SAM; text says NCP H2A, legend H4K20M; histone H4 K20M; MST: 20 mM HEPES pH 7.5, 50 mM NaCl (listed twice), 50 mM KCl, 1 mg/mL BSA, 0.05% Tween-20, 40 uM SAM, 2 mM DTT, room temperature; EMSA: 25 mM HEPES pH 7.5 …
[8] = tested on: SUV420H1(1-390) S255F (human); details: histone H4 K20M; MST: 20 mM HEPES pH 7.5, 50 mM NaCl (listed twice), 50 mM KCl, 1 mg/mL BSA, 0.05% Tween-20, 40 uM SAM, 2 mM DTT, room temperature; EMSA: 25 mM HEPES pH 7.5 …
[9] = tested on: SUV420H1(1-390) R352A (human); details: 40 uM SAM; text says NCP H2A, legend H4K20M; histone H4 K20M; MST: 20 mM HEPES pH 7.5, 50 mM NaCl (listed twice), 50 mM KCl, 1 mg/mL BSA, 0.05% Tween-20, 40 uM SAM, 2 mM DTT, room temperature; EMSA: 25 mM HEPES pH 7.5 …
[10] = tested on: SUV420H1(1-390) K258A (human); details: histone H4 K20M; MST: 20 mM HEPES pH 7.5, 50 mM NaCl (listed twice), 50 mM KCl, 1 mg/mL BSA, 0.05% Tween-20, 40 uM SAM, 2 mM DTT, room temperature; EMSA: 25 mM HEPES pH 7.5 …

In the case of NCP H2A, H4K20M, the Kd [1] is reported as 108 nM, the Kd [2] is reported as 144 nM and the Kd [3] is reported as 323 nM. For the same substance, the Kd [4] was 213 nM, the Kd [5] was 85 nM and the Kd [6] was 93 nM. For the same substance, the Kd [7] was 83 nM, the Kd [8] was 182 nM and the Kd [9] was 220 nM. The Kd [10] was 112 nM.
